Measurements as given in patent US20190233493A1 (Sanofi, published 2019).
*1 amine or outer side, *2 acyl side, *3 side chain or, on linkers, in order; H or OH if unused. Primed or numbered codes have the meaning given here. Side-chain parts run from the residue outwards. [ ]: non-standard residue; d: D form. The star is where a group is joined. TTDS = 4-[3-[2-[2-(3-aminopropoxy)ethoxy]ethoxy]propylamino]-4-oxo-butanoyl, O=C(CCC(=O)[*:2])NCCCOCCOCCOCCCN[*:1]; PEG8′ = 2-[2-[2-[2-[2-[2-[2-[2-[2-aminoethoxy]ethoxy]ethoxy]ethoxy]ethoxy]ethoxy]ethoxy]ethoxy]ethoxy]propanoyl; TTDS″ = 4-[3-[2-[2-(3-aminopropoxy)ethoxy]ethoxy]propylamino]-4-oxo-butanoyl; TtdDga = O=C(COCC(=O)[*:2])NCCCOCCOCCOCCCN[*:1]; γGlu = O=C(O)[C@H](CCC(=O)[*:2])N[*:1]; Pentadecanoyl = CCCCCCCCCCCCCCC(=O)*; Stearoyl = CCCCCCCCCCCCCCCCCC(=O)*; Palmitoyl = CCCCCCCCCCCCCCCC(=O)*; Myristoyl = CCCCCCCCCCCCCC(=O)*; αMeK = C[C@](N)(CCCCN)C(=O)O; Nle = CCCC[C@H](N)C(=O)O; PEG2′ = PEG2 spacer unit; Aib = CC(C)(N)C(=O)O

T1: RXFP1 receptor (UniProt Q9HBX9 1-757, limits assumed)
T1 sequence (looked up): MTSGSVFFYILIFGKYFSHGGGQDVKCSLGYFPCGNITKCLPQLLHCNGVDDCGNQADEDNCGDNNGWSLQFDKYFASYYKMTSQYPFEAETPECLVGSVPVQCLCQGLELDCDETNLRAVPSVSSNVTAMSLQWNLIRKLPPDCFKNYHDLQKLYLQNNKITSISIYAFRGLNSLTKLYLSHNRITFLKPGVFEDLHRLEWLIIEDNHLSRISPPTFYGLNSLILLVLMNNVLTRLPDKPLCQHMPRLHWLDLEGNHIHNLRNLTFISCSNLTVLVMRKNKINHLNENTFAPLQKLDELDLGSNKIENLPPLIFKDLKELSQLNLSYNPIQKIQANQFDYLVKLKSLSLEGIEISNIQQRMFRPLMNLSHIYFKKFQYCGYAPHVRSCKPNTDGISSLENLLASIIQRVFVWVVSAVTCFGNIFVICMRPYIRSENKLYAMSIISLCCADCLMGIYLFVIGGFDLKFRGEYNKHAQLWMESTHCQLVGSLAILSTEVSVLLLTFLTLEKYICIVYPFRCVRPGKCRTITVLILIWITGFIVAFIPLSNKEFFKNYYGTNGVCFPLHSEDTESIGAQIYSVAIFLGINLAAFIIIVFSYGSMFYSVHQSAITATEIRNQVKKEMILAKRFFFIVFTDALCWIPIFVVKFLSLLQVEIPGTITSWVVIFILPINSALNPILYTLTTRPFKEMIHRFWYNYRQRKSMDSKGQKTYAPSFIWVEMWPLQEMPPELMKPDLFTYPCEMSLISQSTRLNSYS


Molecular target: T1, RXFP1 receptor
Experiment: cell-based or functional assay

EC50 (nM), OVCAR 5 cells (cAMP) | EMax, OVCAR 5 cells (cAMP) | Binder
0.05 nM | 100% | Ac-LEGREKVRAK(Ac)I[Aib][Aib]EGQSTFS[αMeK]RAK(Ac)[PEG2′][PEG2′][PEG2′][PEG2′][γGlu][γGlu]K([γGlu-γGlu-Palmitoyl])-NH2 [peptide of SEQ ID NO: 185]
0.18 nM | 100% | Ac-LEGREKVRAK(Ac)I[Aib][Aib]EGQSTFS[αMeK]RAK(Ac)[PEG2′][PEG2′][PEG2′][PEG2′][γGlu][γGlu]K([γGlu-γGlu-Pentadecanoyl])-NH2 [peptide of SEQ ID NO: 186]
0.33 nM | 100% | Ac-LEGREKVRAK(Ac)I[Aib][Aib]EG[Nle]STFS[αMeK]RAK(Ac)[TTDS][TTDS][TTDS]K([γGlu-γGlu-γGlu-Palmitoyl])-NH2 (SMILES CCCCCCCCCCCCCCCC(=O)N[C@@H](CCC(=O)N[C@@H](CCC(=O)N[C@@H](CCC(=O)NCCCC[C@H](NC(=O)CCC(=O)NCCCOCCOCCOCCCNC(=O)CCC(=O)NCCCOCCOCCOCCCNC(=O)CCC(=O)NCCCOCCOCCOCCCNC(=O)[C@H](CCCCNC(C)=O)NC(=O)[C@H](C)NC(=O)[C@H](CCCNC(=N)N)NC(=O)[C@](C)(CCCCN)NC(=O)[C@H](CO)NC(=O)[C@H](Cc1ccccc1)NC(=O)[C@@H](NC(=O)[C@H](CO)NC(=O)[C@H](CCCC)NC(=O)CNC(=O)[C@H](CCC(=O)O)NC(=O)C(C)(C)NC(=O)C(C)(C)NC(=O)[C@@H](NC(=O)[C@H](CCCCNC(C)=O)NC(=O)[C@H](C)NC(=O)[C@H](CCCNC(=N)N)NC(=O)[C@@H](NC(=O)[C@H](CCCCN)NC(=O)[C@H](CCC(=O)O)NC(=O)[C@H](CCCNC(=N)N)NC(=O)CNC(=O)[C@H](CCC(=O)O)NC(=O)[C@H](CC(C)C)NC(C)=O)C(C)C)[C@@H](C)CC)[C@@H](C)O)C(N)=O)C(=O)O)C(=O)O)C(=O)O) [peptide of SEQ ID NO: 187]
0.75 nM | 100% | Ac-LEGREKVRAK(Ac)I[Aib][Aib]EG[Nle]STFS[αMeK]RAK(Ac)[TTDS][TTDS][TTDS]K([γGlu-γGlu-γGlu-Pentadecanoyl])-NH2 (SMILES CCCCCCCCCCCCCCC(=O)N[C@@H](CCC(=O)N[C@@H](CCC(=O)N[C@@H](CCC(=O)NCCCC[C@H](NC(=O)CCC(=O)NCCCOCCOCCOCCCNC(=O)CCC(=O)NCCCOCCOCCOCCCNC(=O)CCC(=O)NCCCOCCOCCOCCCNC(=O)[C@H](CCCCNC(C)=O)NC(=O)[C@H](C)NC(=O)[C@H](CCCNC(=N)N)NC(=O)[C@](C)(CCCCN)NC(=O)[C@H](CO)NC(=O)[C@H](Cc1ccccc1)NC(=O)[C@@H](NC(=O)[C@H](CO)NC(=O)[C@H](CCCC)NC(=O)CNC(=O)[C@H](CCC(=O)O)NC(=O)C(C)(C)NC(=O)C(C)(C)NC(=O)[C@@H](NC(=O)[C@H](CCCCNC(C)=O)NC(=O)[C@H](C)NC(=O)[C@H](CCCNC(=N)N)NC(=O)[C@@H](NC(=O)[C@H](CCCCN)NC(=O)[C@H](CCC(=O)O)NC(=O)[C@H](CCCNC(=N)N)NC(=O)CNC(=O)[C@H](CCC(=O)O)NC(=O)[C@H](CC(C)C)NC(C)=O)C(C)C)[C@@H](C)CC)[C@@H](C)O)C(N)=O)C(=O)O)C(=O)O)C(=O)O) [peptide of SEQ ID NO: 188]
0.42 nM | 100% | Ac-LEGREKVRAK(Ac)I[Aib][Aib]EGQSTFS[αMeK]RAK(Ac)K([TTDS″-TTDS″-TTDS″-γGlu-γGlu-γGlu-Pentadecanoyl])-NH2 [peptide of SEQ ID NO: 189]
1.29 nM | 93% | Ac-LEGREKVRAK(Ac)I[Aib][Aib]EGQSTFS[αMeK]RAK(Ac)[PEG2′][PEG2′][PEG2′][PEG2′]K([γGlu-γGlu-γGlu-γGlu-Myristoyl])-NH2 [peptide of SEQ ID NO: 190]
0.17 nM | 93% | Ac-LEGREKVRAK(Ac)I[Aib][Aib]EGQSTFS[αMeK]RAK(Ac)K([PEG2′-PEG2′-PEG2′-PEG2′-γGlu-γGlu-γGlu-γGlu-Palmitoyl])-NH2 [peptide of SEQ ID NO: 191]
0.62 nM | 91% | Ac-LEGREKVRAK(Ac)I[Aib][Aib]EG[Nle]STFS[αMeK]RAK(Ac)[PEG2′][PEG2′][PEG2′][PEG2′]K([γGlu-γGlu-γGlu-Palmitoyl])-NH2 [peptide of SEQ ID NO: 192]

The next lines start with the binder.

Binder | EC50 (nM), OVCAR 5 cells (cAMP) | EMax, OVCAR 5 cells (cAMP)
Ac-LEGREKVRAQI[Aib][Aib]EGQSTWS[Aib]RKK(Ac)[TtdDga][TtdDga]K([γGlu-γGlu-γGlu-Palmitoyl])-NH2 (SMILES CCCCCCCCCCCCCCCC(=O)N[C@@H](CCC(=O)N[C@@H](CCC(=O)N[C@@H](CCC(=O)NCCCC[C@H](NC(=O)COCC(=O)NCCCOCCOCCOCCCNC(=O)COCC(=O)NCCCOCCOCCOCCCNC(=O)[C@H](CCCCNC(C)=O)NC(=O)[C@H](CCCCN)NC(=O)[C@H](CCCNC(=N)N)NC(=O)C(C)(C)NC(=O)[C@H](CO)NC(=O)[C@H](Cc1c[nH]c2ccccc12)NC(=O)[C@@H](NC(=O)[C@H](CO)NC(=O)[C@H](CCC(N)=O)NC(=O)CNC(=O)[C@H](CCC(=O)O)NC(=O)C(C)(C)NC(=O)C(C)(C)NC(=O)[C@@H](NC(=O)[C@H](CCC(N)=O)NC(=O)[C@H](C)NC(=O)[C@H](CCCNC(=N)N)NC(=O)[C@@H](NC(=O)[C@H](CCCCN)NC(=O)[C@H](CCC(=O)O)NC(=O)[C@H](CCCNC(=N)N)NC(=O)CNC(=O)[C@H](CCC(=O)O)NC(=O)[C@H](CC(C)C)NC(C)=O)C(C)C)[C@@H](C)CC)[C@@H](C)O)C(N)=O)C(=O)O)C(=O)O)C(=O)O) [peptide of SEQ ID NO: 177] | 1.5 nM | 91%
Ac-LEGREKVRAK(Ac)I[Aib][Aib]EG[Nle]STWS[Aib]RKK(Ac)K([PEG2′-PEG2′-PEG2′-γGlu-γGlu-γGlu-Myristoyl])-NH2 [peptide of SEQ ID NO: 178] | 17.6 nM | 93%
Ac-LEGREKVRAK(Ac)I[Aib][Aib]EGQSTYS[Aib]RKK(Ac)[PEG2′][PEG2′][PEG2′]K([γGlu-γGlu-γGlu-Palmitoyl])-NH2 [peptide of SEQ ID NO: 179] | 19.9 nM | 80%
Ac-LEGREKVRAK(Ac)I[Aib][Aib]EGQSTWS[Aib]RKK(Ac)K([PEG2′-PEG2′-PEG2′-PEG2′-γGlu-γGlu-γGlu-γGlu-Stearoyl])-NH2 [peptide of SEQ ID NO: 180] | 1.18 nM | 84%
Ac-LEGREKVRAK(Ac)I[Aib][Aib]EG[Nle]STWS[Aib]RKK(Ac)[PEG8′]K([γGlu-γGlu-γGlu-Palmitoyl])-NH2 [peptide of SEQ ID NO: 181] | 1.63 nM | 79%
Ac-LEGREKVRAK(Ac)I[Aib][Aib]EGQSTFS[αMeK]RAK(Ac)[PEG2′][PEG2′][PEG2′][PEG2′]K([γGlu-γGlu-γGlu-γGlu-Pentadecanoyl])-NH2 [peptide of SEQ ID NO: 182] | 0.19 nM | 99%
Ac-LEGREKVRAK(Ac)I[Aib][Aib]EG[Nle]STFS[αMeK]RAK(Ac)K([TTDS″-TTDS″-TTDS″-γGlu-γGlu-γGlu-Palmitoyl])-NH2 [peptide of SEQ ID NO: 183] | 0.08 nM | 94%
Ac-LEGREKVRAK(Ac)I[Aib][Aib]EG[Nle]STWS[Aib]RKK(Ac)[TtdDga][TtdDga]K([γGlu-γGlu-γGlu-Stearoyl])-NH2 (SMILES CCCCCCCCCCCCCCCCCC(=O)N[C@@H](CCC(=O)N[C@@H](CCC(=O)N[C@@H](CCC(=O)NCCCC[C@H](NC(=O)COCC(=O)NCCCOCCOCCOCCCNC(=O)COCC(=O)NCCCOCCOCCOCCCNC(=O)[C@H](CCCCNC(C)=O)NC(=O)[C@H](CCCCN)NC(=O)[C@H](CCCNC(=N)N)NC(=O)C(C)(C)NC(=O)[C@H](CO)NC(=O)[C@H](Cc1c[nH]c2ccccc12)NC(=O)[C@@H](NC(=O)[C@H](CO)NC(=O)[C@H](CCCC)NC(=O)CNC(=O)[C@H](CCC(=O)O)NC(=O)C(C)(C)NC(=O)C(C)(C)NC(=O)[C@@H](NC(=O)[C@H](CCCCNC(C)=O)NC(=O)[C@H](C)NC(=O)[C@H](CCCNC(=N)N)NC(=O)[C@@H](NC(=O)[C@H](CCCCN)NC(=O)[C@H](CCC(=O)O)NC(=O)[C@H](CCCNC(=N)N)NC(=O)CNC(=O)[C@H](CCC(=O)O)NC(=O)[C@H](CC(C)C)NC(C)=O)C(C)C)[C@@H](C)CC)[C@@H](C)O)C(N)=O)C(=O)O)C(=O)O)C(=O)O) [peptide of SEQ ID NO: 19] | 0.15 nM | 96%
